According to paper PMC5798601 (Cell, 2017):

Assays:
[1] = biological target: 32P-labeled mtRNAP (Figure 5C; truncation not stated) (human) (UniProt O00411); test: cross-linking
[2] = biological target: Δ150 mtRNAP (human mitochondrial RNA polymerase) (human, UniProt O00411 151-1230); test: crystal structure
[3] = biological target: the molecule itself; test: crystal structure
[4] = biological target: mtRNAP Δ150;TEFM Δ135 (CTD + linker) (human;human, UniProt O00411;Q96QE5 151-1230;136-360, |); test: crystal structure
[5] = biological target: 610Bpa-mtRNAP (human) (UniProt O00411); test: cross-linking
[6] = biological target: the molecule itself; test: SEC
[7] = biological target: mtRNAP Δ150;TEFM WT (human;human, UniProt O00411;Q96QE5 151-1230;36-360, |); test: size exclusion chromatography
Chain of mtRNAP Δ150;TEFM WT (O00411 151-1230, stated change not applied, one chain of several): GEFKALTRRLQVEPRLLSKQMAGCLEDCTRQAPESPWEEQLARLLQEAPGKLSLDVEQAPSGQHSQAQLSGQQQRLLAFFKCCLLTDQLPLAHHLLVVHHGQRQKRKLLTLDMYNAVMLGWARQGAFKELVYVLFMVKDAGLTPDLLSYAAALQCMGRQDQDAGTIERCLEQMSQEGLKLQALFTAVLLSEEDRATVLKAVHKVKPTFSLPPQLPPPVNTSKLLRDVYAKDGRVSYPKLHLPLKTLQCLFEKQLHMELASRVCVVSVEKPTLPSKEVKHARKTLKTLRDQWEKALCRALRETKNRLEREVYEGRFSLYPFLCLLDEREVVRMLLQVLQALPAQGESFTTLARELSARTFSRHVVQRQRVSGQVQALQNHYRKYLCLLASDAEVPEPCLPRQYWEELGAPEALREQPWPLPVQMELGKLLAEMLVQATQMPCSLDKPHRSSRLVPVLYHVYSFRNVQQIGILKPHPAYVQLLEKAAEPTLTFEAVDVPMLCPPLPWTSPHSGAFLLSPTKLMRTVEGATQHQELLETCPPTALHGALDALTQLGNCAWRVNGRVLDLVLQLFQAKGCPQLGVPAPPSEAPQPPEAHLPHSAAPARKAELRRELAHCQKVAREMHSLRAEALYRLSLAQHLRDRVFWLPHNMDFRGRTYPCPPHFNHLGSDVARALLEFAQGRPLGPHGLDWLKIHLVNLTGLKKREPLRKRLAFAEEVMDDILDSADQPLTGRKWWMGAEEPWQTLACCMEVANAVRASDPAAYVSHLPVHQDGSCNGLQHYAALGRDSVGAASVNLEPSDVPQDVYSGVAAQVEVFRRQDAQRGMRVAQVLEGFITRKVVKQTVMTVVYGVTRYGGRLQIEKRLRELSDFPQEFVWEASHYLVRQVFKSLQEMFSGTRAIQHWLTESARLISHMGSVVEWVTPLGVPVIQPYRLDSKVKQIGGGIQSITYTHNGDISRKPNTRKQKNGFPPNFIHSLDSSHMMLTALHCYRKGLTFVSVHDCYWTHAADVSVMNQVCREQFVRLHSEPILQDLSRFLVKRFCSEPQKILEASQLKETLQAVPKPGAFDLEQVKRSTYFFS

Chain of 32P-labeled mtRNAP (Figure 5C; truncation not stated) (human) (O00411 42-1230): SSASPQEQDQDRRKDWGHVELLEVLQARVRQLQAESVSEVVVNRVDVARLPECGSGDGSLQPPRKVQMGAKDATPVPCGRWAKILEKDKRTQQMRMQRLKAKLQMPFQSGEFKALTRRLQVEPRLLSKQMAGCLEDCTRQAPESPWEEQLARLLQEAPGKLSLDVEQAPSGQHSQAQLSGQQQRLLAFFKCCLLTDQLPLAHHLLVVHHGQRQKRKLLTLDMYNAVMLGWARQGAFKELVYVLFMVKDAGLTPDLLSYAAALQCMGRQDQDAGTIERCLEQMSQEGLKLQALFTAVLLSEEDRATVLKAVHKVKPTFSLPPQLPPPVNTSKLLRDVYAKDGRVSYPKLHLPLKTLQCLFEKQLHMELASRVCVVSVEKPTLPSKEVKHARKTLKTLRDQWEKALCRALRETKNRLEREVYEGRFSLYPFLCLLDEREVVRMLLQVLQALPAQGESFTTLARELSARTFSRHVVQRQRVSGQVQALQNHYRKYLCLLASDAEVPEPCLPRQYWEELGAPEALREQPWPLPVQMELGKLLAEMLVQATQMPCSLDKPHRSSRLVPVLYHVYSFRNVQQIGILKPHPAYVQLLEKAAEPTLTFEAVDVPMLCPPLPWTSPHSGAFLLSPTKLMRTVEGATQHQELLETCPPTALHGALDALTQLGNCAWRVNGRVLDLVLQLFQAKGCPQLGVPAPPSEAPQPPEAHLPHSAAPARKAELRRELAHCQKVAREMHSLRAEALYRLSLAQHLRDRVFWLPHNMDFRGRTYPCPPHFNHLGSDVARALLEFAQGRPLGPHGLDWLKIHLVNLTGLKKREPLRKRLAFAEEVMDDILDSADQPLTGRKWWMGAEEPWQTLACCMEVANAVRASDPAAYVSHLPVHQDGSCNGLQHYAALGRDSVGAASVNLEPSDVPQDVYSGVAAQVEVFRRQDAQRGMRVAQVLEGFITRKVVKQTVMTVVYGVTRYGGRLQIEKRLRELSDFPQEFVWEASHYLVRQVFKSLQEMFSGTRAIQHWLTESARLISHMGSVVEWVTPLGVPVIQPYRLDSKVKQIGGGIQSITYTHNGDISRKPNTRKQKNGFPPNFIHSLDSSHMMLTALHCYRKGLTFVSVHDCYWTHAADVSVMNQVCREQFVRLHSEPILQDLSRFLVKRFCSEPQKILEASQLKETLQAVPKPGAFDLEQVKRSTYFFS
Chain of mtRNAP Δ150;TEFM Δ135 (CTD + linker) (O00411 151-1230, stated change not applied, one chain of several): as the sequence (O00411 151-1230, stated change not applied, one chain of several) above
Chain of Δ150 mtRNAP (human mitochondrial RNA polymerase) (O00411 151-1230, stated change not applied): as the sequence (O00411 151-1230, stated change not applied, one chain of several) above
Chain of 610Bpa-mtRNAP (human) (O00411 42-609): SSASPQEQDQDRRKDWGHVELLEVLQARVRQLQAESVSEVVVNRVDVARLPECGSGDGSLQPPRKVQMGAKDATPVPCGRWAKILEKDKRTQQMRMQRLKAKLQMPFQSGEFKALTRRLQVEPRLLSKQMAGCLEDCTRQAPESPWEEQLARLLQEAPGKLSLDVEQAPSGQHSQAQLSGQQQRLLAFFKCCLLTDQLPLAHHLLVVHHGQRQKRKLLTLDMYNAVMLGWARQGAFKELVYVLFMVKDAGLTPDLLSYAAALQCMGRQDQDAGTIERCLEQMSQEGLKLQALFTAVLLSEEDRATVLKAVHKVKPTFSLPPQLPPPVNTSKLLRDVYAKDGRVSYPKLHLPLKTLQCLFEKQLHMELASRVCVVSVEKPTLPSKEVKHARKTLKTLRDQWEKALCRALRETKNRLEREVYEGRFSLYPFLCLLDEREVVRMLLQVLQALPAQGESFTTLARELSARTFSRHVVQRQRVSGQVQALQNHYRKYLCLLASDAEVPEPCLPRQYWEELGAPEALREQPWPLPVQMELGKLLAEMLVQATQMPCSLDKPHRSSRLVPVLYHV

Molecule: Bpa309 TEFM (from UniProt Q96QE5 36-360) (natural protein)
- cross-linking efficiency [1]: > 30%

Molecule: Bpa310 TEFM (from UniProt Q96QE5 36-360) (natural protein)
- cross-linking efficiency [1]: > 30%

Molecule: Bpa308 TEFM (from UniProt Q96QE5 36-360) (natural protein)
- cross-linking efficiency [1]: > 30%

Molecule: Bpa312 TEFM (from UniProt Q96QE5 36-360) (natural protein)
- cross-linking efficiency [1]: > 30%

B1: Δ135 TEFM (CTD with the inter-domain linker, residues 136-360) (domain or fragment, human, UniProt Q96QE5 136-360, looked up)
chain: PKTGREKRKSPENRFLRKLLKPDIERERLKAVNSIISIVFGTRRIAWAHLDRKLTVLDWQQSDRWSLMRGIYSSSVYLEEISSIISKMPKADFYVLEKTGLSIQNSSLFPILLHFHIMEAMLYALLNKTFAQDGQHQVLSMNRNAVGKHFELMIGDSRTSGKELVKQFLFDSILKADPRVFFPSDKIVHYRQMFLSTELQRVEELYDSLLQAIAFYELAVFDSQP
- binding result [2]: binds
- binding result [3]: binds

B2: EC scaffold NT25HH/TS22HH/RNA14mt (mixed)
DNA 1: GAACATGGTGTAATTATTTCGACGCCAGACGAAC
DNA 2: GTTCGTCTGGCGTGCGCGCCGCTACACCATGTTC
RNA: AGUCUGCGGCGCGC
- binding result [4]: binds

B3: 32P-labeled TEFM (natural protein)
chain: KSTTPKKITPNVTFCDENAKEPENALDKLFSSEQQASILHVLNTASTKELEAFRLLRGRRSINIVEHRENFGPFQNLESLMNVPLFKYKSTVQVCNSILCPKTGREKRKSPENRFLRKLLKPDIERERLKAVNSIISIVFGTRRIAWAHLDRKLTVLDWQQSDRWSLMRGIYSSSVYLEEISSIISKMPKADFYVLEKTGLSIQNSSLFPILLHFHIMEAMLYALLNKTFAQDGQHQVLSMNRNAVGKHFELMIGDSRTSGKELVKQFLFDSILKADPRVFFPSDKIVHYRQMFLSTELQRVEELYDSLLQAIAFYELAVFDSQP
modifications: 32P-labeled
- cross-linking efficiency [5]: 30%

B4: WT TEFM (human mitochondrial transcription elongation factor) (natural protein, UniProt Q96QE5 36-360, looked up)
chain: B3 chain
- stoichiometry N [6]: 2

B5: cross-linking scaffold NT19HH/TS16HH/RNA14HH (mixed)
DNA 1: CATGGGGTAACTAGTTCGACGCCAGACG
DNA 2: CGTCTGGCGTGATCACGACTACCCCATG
RNA: UGAUGGUAAUGCUCCUGUCGUGAUC
- binding result [7]: binds
